From patent US20080233097A1, “Phosphorylation Site Of Mitogen-Activated Protein Kinases, Modified Proteins And Applications” (UNIVERSIDAD AUTONOMA DE MADRID, priority 2005, published 2008)
Substitutions are numbered along the chain they refer to. Numbers in names are those of the source. Each block holds one molecule with its values, some of them ahead of it.

Experiments:
[1] = test system: β2-adrenergic (β2-AR) receptor; test: isoproterenol stimulation of HEK 293 cells with β2-AR, Flag-p38α and GRK2 (co-immunoprecipitation, anti-phospho-p38); format: cell-based, human
Protocol: 48 hours after the transfection and after a 2 hour serum starvation, the cells were stimulated with the adrenergic agonist isoproterenol (ISO, 10 μM) for 5 or 10 minutes or they were not stimulated (0 min ISO). Likewise, cells without overexpressed β2-AR receptor were stimulated with 0.5 M NaCl for 15 minutes. The cells were solubilized in a buffer suitable for immunoprecipitation with the M2 anti-Flag antibody bound to agarose and after taking aliquots of these lysates (10%) for overexpression control (lysate panels) the immune complexes were incubated overnight at 4° C. The immunoprecipitated proteins (Ip anti-Flag) were resuspended in an electrophoresis breaking buffer and the bound proteins were resolved in a 10% SDS-polyacrylamide gel. […] The negative immunoprecipitation controls (Cneg) in the absence of Flag-p38α and of stimulation with 10 μM isoproterenol are also included in the figure. […] As described in A, non-specific immunoprecipitation controls (Cneg) of the M2 anti-Flag-agarose antibody were carried out.
In the GRK2 and Flag-p38α association experiments, a 1:1:1 ratio of GRK2 (or GRK2-K220R), Flag-p38α, and β2-adrenergic receptor was used (generally 1 μg of each per p60).
The stimulation of HEK293 cells with 10 μM isoproterenol (Sigma) was carried out at 37° C. in culture medium without serum. […]

[2] = target: T1, GRK2 (Bos taurus, UniProt P21146); test: phosphorylation of p38 mutants and truncated proteins by GRK2 in vitro; format: biochemical; settings: GST fusion proteins, 30 minutes at 30° C.
T1 construct: made in house; host or cells: Sf9 cells (baculovirus)
T1 sequence (P21146 1-689): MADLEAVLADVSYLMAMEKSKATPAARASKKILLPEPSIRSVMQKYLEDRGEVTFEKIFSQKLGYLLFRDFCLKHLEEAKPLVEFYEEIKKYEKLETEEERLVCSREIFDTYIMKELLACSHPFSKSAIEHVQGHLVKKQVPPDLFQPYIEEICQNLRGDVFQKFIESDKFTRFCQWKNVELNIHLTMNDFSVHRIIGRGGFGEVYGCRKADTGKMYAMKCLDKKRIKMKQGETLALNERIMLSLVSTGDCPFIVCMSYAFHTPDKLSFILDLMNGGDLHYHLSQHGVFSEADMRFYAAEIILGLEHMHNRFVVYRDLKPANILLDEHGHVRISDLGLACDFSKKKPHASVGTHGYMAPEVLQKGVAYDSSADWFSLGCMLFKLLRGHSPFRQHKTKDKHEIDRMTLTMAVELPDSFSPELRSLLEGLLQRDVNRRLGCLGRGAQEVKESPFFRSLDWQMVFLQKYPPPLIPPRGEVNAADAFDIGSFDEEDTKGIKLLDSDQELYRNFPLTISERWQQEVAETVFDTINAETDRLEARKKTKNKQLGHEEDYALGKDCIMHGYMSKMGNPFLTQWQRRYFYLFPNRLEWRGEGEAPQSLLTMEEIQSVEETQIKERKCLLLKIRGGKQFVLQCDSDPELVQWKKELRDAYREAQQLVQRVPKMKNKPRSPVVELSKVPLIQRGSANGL
Protocol: FIG. 6A: Proteins fused to GST (black rectangle in the protein schemes) were purified from bacteria transformed with the plasmids pGEX2T-p38α, pGEX4T-Mxi2 and pGEX4T-Mxi2Δ17: p38α, Mxi2 and Mxi2Δ17. The […] isoforms used as C-terminal truncated mutants for trying to limit the GRK2 phosphorylation site. […] Heparin (150 nM) was included as a specific GRK2 inhibitor. The reactions were stopped by adding SDS breaking buffer. The samples were resolved in 8% SDS-PAGE. For the purpose of assuring the inclusion of identical amounts of protein, they were first visualized in the gel by Coomassie Brilliant Blue (CBB) staining. Then the gel was dried and the radioactivity incorporated to the proteins (^32P) was detected. FIG. 6B: The truncated GST-280-360p38 protein, corresponding to the last 80 p38α amino acids, was generated by means of the Invitrogen Gateway system. Phosphorylation assays were carried out with Mxi2Δ17 as a p38 N-terminal, 280-360 p38 as C-terminal and with whole p38α in the same conditions as described in section A. The phosphorylation was detected by autoradiography (^32P) and controls of the amount of protein used in the assays were carried out concomitantly by Western blot with the anti-GST antibody. The presence of the GST-280-360p38 protein, which is not phosphorylated, is clearly observed. STD, mobility of standard molecular weight proteins.
FIG. 9A: p38T123A and p38T123D proteins, fused to GST, were made by directed mutagenesis in the prokaryotic expression plasmids pGEX2T. The ability of the recombinant GST-p38T123A and GST-p38T123D proteins to be GRK2 substrates in comparison to the wild GST-p38WT protein and at the final concentrations indicated in the Figure was assayed. The upper panels represent the obtained phosphorylation (32 P) and the lower panels show, by anti-p38N WB, the amount of recombinant protein used in the assays. […]
Heparin (150 nM) was included as a specific GRK2 inhibitor. […] Subsequently, the gel was dried and the radioactivity incorporated to the proteins (^32P) was detected. […]

[3] = test system: MKK6CAM; test: p38 phosphorylation by MKK6CAM in vitro; format: biochemical; settings: 150 nM fusion protein, 40 ng MKK6CAM
Protocol: (§1) The reactions were carried out at 30° C. for 30 minutes and the proteins were separated in 8% SDS-PAGE gels. The amount of p38 in each point was visualized by Coomassie Blue staining. Then the radioactivity in each p38 isoform was determined. […] FIG. 11B: In these same assays, the ability of MKK6CAM-activated GST-p38WT, GST-p38T123A and GST-p38T123D to phosphorylate 2 μg of GST-ATF2 is evaluated. The representative autoradiography (^32P) of the total GST-ATF2 control (Coomassie Blue) is attached.
As in the previous cases, the reactions were left to take place at 30° C. for 30 minutes and the proteins were resolved in 8% SDS-PAGE gels. With the purpose of assuring the inclusion of identical amounts of protein, they were visualized in the gel by Coomassie Blue staining. Subsequently, the radioactivity incorporated in each p38 isoform was determined.

[4] = test system: GST-ATF2; test: phosphorylation of GST-ATF2 by MKK6CAM-activated p38; format: biochemical; settings: with MKK6CAM, 2 μg GST-ATF2
Protocol: as §1
(§2) The ATF2 and MEF2A forms bound to GST were used to test the catalytic activity of GST-p38. In most cases, 2 μg of GST-ATF2 or GST-MEF2A, of own production, were used. The phosphorylation conditions are the same as set forth in the foregoing cases. Nevertheless, in other occasions, relevantly pointed out in the Figures, 0.2 μg of substrate were used and the phosphorylation reaction was allowed to take pace for 15 minutes only.

[5] = test system: GST-MEF2A; test: phosphorylation of GST-MEF2A by p38; format: biochemical
Protocol: FIG. 12A: In vitro phosphorylations are carried out with the fusion proteins indicated in the Figure, in the presence (+) or absence (−) of recombinant MKK6CAM(40 ng) and 2 μg of GST-MEF2A. The assay was left to take place for 30 minutes. The proteins were separated in 8% SDS-PAGE, stained with CBB and the incorporated radioactivity (^32P) was detected. Panels of a representative experiment of the three assays carried out independently are provided. FIG. 12B: The baseline activity of the three p38 fusion proteins in the absence of the MKK6CAM activator was evaluated in the previously described conditions. A representative autoradiography after a long exposure is shown.
as §2

[6] = test system: 3T3-L1 cells; test: adipocyte differentiation of 3T3-L1 (Oil Red staining, adipocyte count); format: cell-based; settings: 3T3L1 lines stably transfected, day 15
Description: 3T3L1 lines stably transfected with pCDNA3-GRK2 and pCDNA3-GRK2K220R were made. GRK2 (anti-GRK2) expression controls obtained in cell lines, compared to 3T3L1 levels, are included. The cells were subjected to a standard differentiation treatment and on day 15 of the latter, the cells were fixed with formalin and stained with Oil Red, a lipophilic coloring which binds to the fats accumulated by the adipocytes. The cells with adipocytic phenotype (in red) were counted under microscope in a total of 25 fields. Representative photographs of two independent experiments are shown in duplicate. A photo of the 3T3L1 cells, free of stimulation with insulin during the differentiation process (control), is also included. The graph reflects the adipocyte count (±SEM) in these experiments.
The cell culture was carried out with 10% DMEM medium of NCS serum. However, the entire differentiation process which is described below must be performed in depleted AXC serum (ion exchange resin) by means of successive adsorptions of fetal calf serum on an anion exchange resin and on active carbon. AXC serum was provided by the kitchen service of the Instituto of Investigaciones Biomédicas (Biomedical Research Institute). The cells are grown until their confluence and are plated (5×10^5 in P-100) in DMEM-10% AXC medium, supplemented with 4 μM of biotin (Sigma). The following day, the medium is replaced with fresh medium. The cells are grown another three days, until confluence is reached again, that day is called day “0”. On day 0 of differentiation, the cells are cultured in a medium containing: 0.5 μM dexamethasone (Sigma), 0.5 mM 3-isobutyl-1-methylxanthine (IMBX, of Sigma) and 1 μM insulin (Sigma) and in which they will remain for another three days. […] From day 6 to day 15, the adipogenesis was analyzed by staining with Oil Red, a red coloring of lipophilic constitution which binds to the drops of fat accumulated by the adipocytes in their cytoplasm. […] The cells are counted in a total of 25 fields per each experimental plate.

[7] = target: GST-p38T123D

Molecule: CC(C)NCC(O)c1ccc(O)c(O)c1 (stereo not shown) [isoproterenol]
- p38 activation (anti-phospho-p38) ([1]; 10 μM): not very strong
- association between GRK2 and p38 (co-immunoprecipitation) ([1]; 10 μM, 0, 5 or 10 minutes): maximum association is obtained five minutes after exposure

B1: p38T123A: p38α mutant form that cannot be phosphorylated by GRK2 (protein, UniProt P47811 2-360, looked up, variant T123A)
Mitogen-activated protein …: SQERPTFYRQELNKTIWEVPERYQNLSPVGSGAYGSVCAAFDTKTGHRVAVKKLSRPFQSIIHAKRTYRELRLLKHMKHENVIGLLDVFTPARSLEEFNDVYLVTHLMGADLNNIVKCQKLADDHVQFLIYQILRGLKYIHSADIIHRDLKPSNLAVNEDCELKILDFGLARHTDDEMTGYVATRWYRAPEIMLNWMHYNQTVDIWSVGCIMAELLTGRTLFPGTDHIDQLKLILRLVGTPGAELLKKISSESARNYIQSLAQMPKMNFANVFIGANPLAVDLLEKMLVLDSDKRITAAQALAHAYFAQYHDPDDEPVADPYDQSFESRDLLIDEWKSLTYDEVISFVPPPLDQEEMES
modifications: GST fusion in some forms
notes: p38α mutant form that cannot be phosphorylated by GRK2
- ability to be a GRK2 substrate (32P incorporation) [2]: none of the two mutant is a GRK2 substrate
- phosphorylation by MKK6CAM (32P) [3]: correctly phosphorylated by MKK6CAM
- catalytic activity on GST-ATF2 [4]: phosphorylate it analogously
- baseline catalytic activity on MEF2A ([5]; absence of the activating kinase MKK6, long exposure): middle ground between p38αWT and p38Tα123D
- catalytic activity on MEF2A ([5]; with MKK6CAM, 2 μg GST-MEF2A): conserves the ability to phosphorylate this substrate

B2: K220R: catalytically inactive GRK2-K220R mutant (protein)
chain: T1 sequence (P21146 1-689) with K220R
- acquisition of the adipocytic morphology mediated by insulin [6]: stimulates it

B3: purified MKK6 (recombinant MKK6CAM, Upstate Biotech) (protein)
chain: MSQSKGKKRNPGLKIPKEAFEQPQTSSTPPRDLDSKACISIGNQNFEVKADDLEPIMELGRGAYGVVEKMRHVPSGQIMAVKRIRATVNSQEQKRLLMDLDISMRTVDCPFTVTFYGALFREGDVWICMELMDTSLDKFYKQVIDKGQTIPEDILGKIAVSIVKALEHLHSKLSVIHRDVKPSNVLINALGQVKMCDFGISGYLVDEVAKEIDAGCKPYMAPERINPELNQKGYSVKSDIWSLGITMIELAILRFPYDSWGTPFQQLKQVVEEPSPQLPADKFSAEFVDFTSQCLKKNSKERPTYPELMQHPFFTLHESKGTDVASFVKLILGD
- phosphorylation by MKK6CAM (32P incorporation) [7]: GST-p38T123D is a much worse MKK6CAM substrate than the other two p38

- ability to be a GRK2 substrate (32P incorporation) [2]: no trace whatsoever of phosphorylation
B4: GST-280-360 p38α: truncated protein corresponding to the last 80 amino acids of p38α, fused to GST (protein)
chain: AVDLLEKMLVLDSDKRITAAQALAHAYFAQYHDPDDEPVADPYDQSFESRDLLIDEWKSLTYDEVISFVPPPLDQEEMES
modifications: left off: a dimerising Fc or GST
notes: truncated protein corresponding to the last 80 amino acids of p38α, fused to GST
